Like-named read-outs stand apart in the source and are kept apart here.

On to Mps1: K86R, for which the expression_or_secretion entry (ubiquitination at K86) is “increases”.

Take Mps1: K827R: for the setting “ubiquitination at K827”, the expression_or_secretion result is listed as “increases”.

With Mps1: K848R, the expression_or_secretion result (ubiquitination at K848) is reported as “increases”.

For the substance Mps1: RRR (K86R, K827R, K848R), the expression_or_secretion entry is on record as “increases” (ubiquitination at K86), “increases” (ubiquitination at K827) and “increases” (ubiquitination at K848).

These data come from paper PMC8578495.
